Measured values from patent publication US20050037969A1 (ARBOR VITA, published 2005).
Ends that are not written are not given here. * marks the point of attachment. Biotin = O=C1N[C@H]2[C@H](CS[C@H]2CCCCC(=O)*)N1

T1: GST-PDZK1 fusion protein (PDZ domains 2-4) (Homo sapiens, UniProt Q5T2W1 134-457)
T1 construct: not shown: glutathione S-transferase encoded by vector pGEX-3X (Pharmacia)
T1 sequence: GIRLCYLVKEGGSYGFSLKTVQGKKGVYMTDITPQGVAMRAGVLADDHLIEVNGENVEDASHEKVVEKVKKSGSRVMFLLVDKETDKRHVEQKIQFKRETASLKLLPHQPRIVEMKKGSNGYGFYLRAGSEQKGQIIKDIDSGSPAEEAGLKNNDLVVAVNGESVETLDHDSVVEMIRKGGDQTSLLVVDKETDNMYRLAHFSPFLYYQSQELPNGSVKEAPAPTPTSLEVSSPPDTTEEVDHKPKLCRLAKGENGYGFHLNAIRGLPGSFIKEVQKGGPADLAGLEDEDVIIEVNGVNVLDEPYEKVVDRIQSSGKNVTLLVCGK

T2: GST-MPP1 PDZ domain fusion protein (Homo sapiens (Human), UniProt Q00013 67-152)
T2 construct: also called p55; 55 Kd erythrocyte membrane protein; not shown: glutathione S-transferase encoded by vector pGEX-3X (Pharmacia)
T2 sequence: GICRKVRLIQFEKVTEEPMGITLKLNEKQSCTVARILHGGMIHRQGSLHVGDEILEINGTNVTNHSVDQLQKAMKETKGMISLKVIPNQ

T3: ConEn PDZ-GST fusion protein (Homo sapiens (Human), UniProt Q969H4 193-287)
T3 construct: The label ConEn is not explained in the excerpts
T3 sequence: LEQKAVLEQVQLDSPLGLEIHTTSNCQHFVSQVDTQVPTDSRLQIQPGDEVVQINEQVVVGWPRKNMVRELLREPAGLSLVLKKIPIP

T4: GST-LIM protein PDZ domain fusion protein (Human, UniProt Q96HC4 2-85)
T4 construct: also called Human LIM protein; not shown: glutathione S-transferase encoded by vector pGEX-3X (Pharmacia)
T4 sequence: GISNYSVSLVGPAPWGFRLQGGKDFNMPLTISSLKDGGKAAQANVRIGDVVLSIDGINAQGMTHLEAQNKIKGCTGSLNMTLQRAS

T5: GST-prIL16 fusion protein (PDZ domains 1-2) (Homo sapiens (Human), UniProt Q14005 1111-1324)
T5 construct: also called putative interleukin 16 precursor; not shown: glutathione S-transferase encoded by vector pGEX-3X (Pharmacia)
T5 sequence: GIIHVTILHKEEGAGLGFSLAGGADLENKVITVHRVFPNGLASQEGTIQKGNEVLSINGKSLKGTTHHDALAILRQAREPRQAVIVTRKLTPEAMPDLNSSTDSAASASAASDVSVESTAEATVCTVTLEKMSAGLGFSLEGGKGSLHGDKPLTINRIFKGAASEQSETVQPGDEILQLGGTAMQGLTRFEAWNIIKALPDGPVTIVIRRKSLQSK

T6: K858 PDZ-GST fusion protein (Homo sapiens (Human), UniProt Q8WWI1 1038-1131)
T6 construct: Order of GST and PDZ part and limits not seen in the excerpts
T6 sequence: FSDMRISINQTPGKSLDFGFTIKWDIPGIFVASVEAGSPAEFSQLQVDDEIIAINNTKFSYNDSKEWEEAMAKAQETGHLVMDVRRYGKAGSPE

T7: GST-cytohesin binding protein PDZ domain fusion protein (Homo sapiens (Human), UniProt O60759 74-165)
T7 construct: also called CBP; not shown: glutathione S-transferase encoded by vector pGEX-3X (Pharmacia)
T7 sequence: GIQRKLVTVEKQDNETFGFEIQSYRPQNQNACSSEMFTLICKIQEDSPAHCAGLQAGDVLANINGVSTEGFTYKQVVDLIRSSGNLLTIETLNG

T8: GST-TAX-IP40 PDZ domain fusion protein (human, UniProt Q6B4M5 150-252 (rat entry))
T8 construct: also called TAX40; not shown: glutathione S-transferase encoded by vector pGEX-3X (Pharmacia)
T8 sequence: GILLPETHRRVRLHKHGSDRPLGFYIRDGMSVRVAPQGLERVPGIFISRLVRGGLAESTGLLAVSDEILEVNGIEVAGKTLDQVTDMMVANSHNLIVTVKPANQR

T9: X11β PDZ-GST fusion protein (Rattus norvegicus (Rat), UniProt O35431 560-745)
T9 construct: Order of GST and PDZ part and limits not seen in the excerpts
T9 chain: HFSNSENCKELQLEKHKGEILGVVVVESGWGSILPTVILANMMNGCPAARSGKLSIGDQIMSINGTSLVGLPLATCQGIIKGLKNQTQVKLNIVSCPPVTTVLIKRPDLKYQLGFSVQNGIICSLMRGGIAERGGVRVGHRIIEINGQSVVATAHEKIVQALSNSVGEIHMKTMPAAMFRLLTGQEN

T10: GST-AF6 PDZ domain fusion protein (Homo sapiens (Human), UniProt P55196 1001-1093)
T10 construct: also called af-6 protein; not shown: glutathione S-transferase encoded by vector pGEX-3X (Pharmacia)
T10 sequence: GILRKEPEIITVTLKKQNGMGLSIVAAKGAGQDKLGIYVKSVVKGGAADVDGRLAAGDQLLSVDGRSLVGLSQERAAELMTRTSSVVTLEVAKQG

T11: GST-RGS12 PDZ domain fusion protein (human, UniProt O14924 17-85)
T11 construct: also called human regulator of G-protein signalling 12; not shown: glutathione S-transferase encoded by vector pGEX-3X (Pharmacia)
T11 sequence: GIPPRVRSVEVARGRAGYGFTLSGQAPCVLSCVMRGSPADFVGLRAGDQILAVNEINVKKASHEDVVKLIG

T12: GST-TAX-IP2 PDZ domain fusion protein (human, UniProt O14908 129-216)
T12 construct: also called TAX-1P2; TAX2; not shown: glutathione S-transferase encoded by vector pGEX-3X (Pharmacia)
T12 chain: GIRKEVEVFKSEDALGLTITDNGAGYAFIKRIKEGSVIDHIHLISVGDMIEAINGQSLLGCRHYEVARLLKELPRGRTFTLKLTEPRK

B1: DOCK2 C-terminal peptide AA40L, biotinylated (peptide)
peptide: Biotin-LASKSAEEGKQIPDSLSTDL
B2: CD83 C-terminal peptide AA47L, biotinylated (peptide)
peptide: Biotin-VTSPNKHLGLVTPHKTELV
B3: FceRIb C-terminal peptide AA25L, biotinylated (peptide)
peptide: Biotin-YSATYSELEDPGEMSPPIDL
notes: also called FceRlb; FcεRβI
B4: CD166 C-terminal peptide AA20L, biotinylated (peptide)
peptide: Biotin-DLGNMEENKKLEENNHKTEA
notes: also called CD166 (CD6L)

Target: T1, GST-PDZK1 fusion protein (PDZ domains …)
Test: A/G assays

Binding result, no binding:
B1, B2, B3, B4

Target: T2, GST-MPP1 PDZ domain fusion protein
Test: A/G assays

Binding result, no binding:
B1, B2, B3, B4

Target: T3, ConEn PDZ-GST fusion protein
Test: A/G assays

Binding result, no binding:
B1, B2, B3, B4

Target: T4, GST-LIM protein PDZ domain fusion …
Test: A/G assays

Binding result, no binding:
B1, B2, B3, B4

Target: T5, GST-prIL16 fusion protein (PDZ domains …)
Test: A/G assays

Binding result, no binding:
B1, B2, B3, B4

Target: T6, K858 PDZ-GST fusion protein
Test: A/G assays

Binding result, no binding:
B1, B2, B3, B4

Target: T13, GST-TIAM1 PDZ domain fusion protein (Homo sapiens (Human), UniProt Q13009 845-931)
T13 construct: also called TLAM1; T-lymphoma invasion and metastasis inducing protein 1; not shown: glutathione S-transferase encoded by vector pGEX-3X (Pharmacia)
Test: A/G assays

T13 sequence (Q13009 other isoform, or with tags, fused parts or gaps): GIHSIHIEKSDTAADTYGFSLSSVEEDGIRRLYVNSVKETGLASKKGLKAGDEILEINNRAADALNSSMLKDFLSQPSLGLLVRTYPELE

Binding result, no binding:
B1, B2, B3, B4

Target: T7, GST-cytohesin binding protein PDZ …
Test: A/G assays

Binding result, no binding:
B1, B2, B3, B4

Target: T8, GST-TAX-IP40 PDZ domain fusion protein
Test: A/G assays

Binding result, no binding:
B1, B2, B3, B4

Target: T9, X11β PDZ-GST fusion protein
Test: A/G assays

Binding result, no binding:
B1, B2, B3, B4

Target: T10, GST-AF6 PDZ domain fusion protein
Test: A/G assays

Binding result, no binding:
B1, B2, B3, B4

Target: T11, GST-RGS12 PDZ domain fusion protein
Test: A/G assays

Binding result, no binding:
B1, B2, B3, B4

Target: T12, GST-TAX-IP2 PDZ domain fusion protein
Test: A/G assays

Binding result, no binding:
B1, B2, B3, B4

Target: T14, NSP PDZ-GST fusion protein (Homo sapiens (Human), UniProt Q92743 370-466)
T14 construct: The label NSP is not explained in the excerpts
Test: A/G assays

T14 sequence (Q92743 other isoform, or with tags, fused parts or gaps limits assumed): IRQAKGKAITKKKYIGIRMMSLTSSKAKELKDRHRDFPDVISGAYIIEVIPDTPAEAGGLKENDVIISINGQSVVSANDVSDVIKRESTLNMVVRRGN

Binding result, no binding:
B1, B2, B3, B4
